Laboratory results from PMC3572731 (Journal of molecular biology, 2012).

How the values were obtained:
crystal structure = biological target: the molecule itself; experiment: crystal structure
SEC = biological target: the molecule itself; experiment: SEC

| Protein | binding result (crystal structure) | stoichiometry N (SEC) |
| --- | --- | --- |
| Sf6 terminase small subunit gp1 R48A mutant (natural protein) MATEPKAGRPSDYMPEVADDICSLLSSGESLLKVCKRPGMPDKSTVFAWLAKHEDFRDKYAKATEARADSIFEEIFEIADNAIPDAAEVAKARLRVDTRKWALARMNPRKYGDKVTNELVGKDGGAIQIETSPMSTLFGK | binds |  |
| Sf6 terminase small subunit gp1 D19R mutant (natural protein, Shigella phage Sf6, UniProt Q716H4 1-140, looked up) MATEPKAGRPSDYMPEVARDICSLLSSGESLLKVCKRPGMPDKSTVFRWLAKHEDFRDKYAKATEARADSIFEEIFEIADNAIPDAAEVAKARLRVDTRKWALARMNPRKYGDKVTNELVGKDGGAIQIETSPMSTLFGK | binds |  |
| Sf6 terminase small subunit gp1 K59E mutant (natural protein) MATEPKAGRPSDYMPEVADDICSLLSSGESLLKVCKRPGMPDKSTVFRWLAKHEDFRDEYAKATEARADSIFEEIFEIADNAIPDAAEVAKARLRVDTRKWALARMNPRKYGDKVTNELVGKDGGAIQIETSPMSTLFGK | binds |  |
| Sf6 terminase small subunit gp1 E73A mutant (natural protein, Shigella phage Sf6) MATEPKAGRPSDYMPEVADDICSLLSSGESLLKVCKRPGMPDKSTVFRWLAKHEDFRDKYAKATEARADSIFAEIFEIADNAIPDAAEVAKARLRVDTRKWALARMNPRKYGDKVTNELVGKDGGAIQIETSPMSTLFGK |  | 8 |
